Source: the supplement of paper PMC12764529
± gives the half width of the 95% confidence interval.

Tests used:
[1] = folding stability dG unfold (combined trypsin and chymotrypsin); higher = more stable
Procedure, shortened: (§1)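 Unfolding free energy was derived, per protease or combined, against a sequence-predicted unfolded-state K50 and a shared folded-state K50, starting from K50 inferred by Bayesian fitting of sequencing counts. Digestion with trypsin and chymotrypsin was carried out on designed mini-proteins under 80 residues without cysteine in a PA-tagged cDNA display construct. Only designs with AlphaFold2 dimer inter-PAE above 15 were kept.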

[2] = folding stability dG unfold from chymotrypsin proteolysis; higher = more stable
Procedure, shortened: as §1

[3] = folding stability dG unfold from trypsin proteolysis; higher = more stable
Protocol: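 Folding stability of de novo designed mini-proteins (<80 aa, no Cys; designed by TrROS, TrMRF, ProteinMPNN and the joint model) was measured by cDNA display proteolysis with trypsin and chymotrypsin. Each protease was used at 11 concentrations in a threefold dilution series plus a no-protease condition. K50 was inferred by Bayesian fitting of sequencing counts, and dG unfold was derived against a sequence-predicted unfolded-state K50 (Tsuboyama et al. method). Sequences shown include variable-length N-terminal GS-type padding (SAGGSAGG...) inside a display construct carrying a PA tag. Rows were kept only if the AF2 dimer inter-PAE was >15, to exclude likely homo-oligomers.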

SAGGGQPVKITEIENIDPNNGKITFEIVDPDDGRPLKIKIPVQRRPNGKPYLQIEIEVDGKKWEIMFMSAGG [r13_993_TrROS]
folding stability dG unfold [1]: 1.87 ± 0.15 kcal/mol | folding stability dG unfold [2]: 1.67 ± 0.16 kcal/mol | folding stability dG unfold [3]: 1.7 ± 0.17 kcal/mol

SAGGSITLPPVELPNGEKVTVTIEITPVPGAPPEERYRVTVTRTNPKTGTTETTELEVTRKGSVVTLESAGG [r13_208_JUSTAS]
folding stability dG unfold [1]: 1.88 ± 0.099 kcal/mol | folding stability dG unfold [2]: 1.5 ± 0.022 kcal/mol | folding stability dG unfold [3]: 2.16 ± 0.059 kcal/mol

SIEELAKKFPNVTVTVEKTEDGEVKITITVKTSEEQKKELQEKLKELAKKLAEELDLKVEIEIKVLPAPPSA [r9_1099_TrROS_Hall]
folding stability dG unfold [2]: 3.7 ± 0.38 kcal/mol | folding stability dG unfold [3]: 3.86 ± 0.26 kcal/mol

SAGMTVEVEIELPPGMTEEERLEEVKALVEELARALLPPGWKVTVKEIEVEEKDGKLVVKVKIEIEPEESAG [r5_146_TrROS_Hall]
folding stability dG unfold [2]: 2.99 ± 0.22 kcal/mol | folding stability dG unfold [3]: 3.96 ± 0.28 kcal/mol

SAGGSMKTYKLESEEEIEKLIKELSPEKYIVGVKGNPDGTPVVYIFPKSEPEKLKKLGVKEIIPVKSAGGSA [r2_351_JUSTAS]
folding stability dG unfold [2]: -0.109 ± 0.57 kcal/mol | folding stability dG unfold [3]: -0.442 ± 0.46 kcal/mol

SAGGMLTPEEIERLARELEEAIRRGDRERAEELLEKLEELLKQAEEEGDEELVERLKKLLERAKKALESAGG [r13_137_TrROS_Hall]
folding stability dG unfold [2]: 2.99 ± 0.19 kcal/mol | folding stability dG unfold [3]: 4.85 ± 0.55 kcal/mol

SAGGSAGGSAGGSFSVSVSYDPSTGNIVIRIDLPDGSTITITINPATGEISVSSSSSSSSAGGSAGGSAGGS [r10_127_TrMRF]
folding stability dG unfold [2]: 3.83 ± 0.25 kcal/mol | folding stability dG unfold [3]: 4.13 ± 0.28 kcal/mol

SDTVHIPIDPNDPDEIKDLIKNLPPGWTVHIWWPDKNGEWPVVTIKVKPPPPPPIPPEDLPEEQRKEMKKSA [r9_1103_TrROS]
folding stability dG unfold [2]: 0.718 ± 0.11 kcal/mol | folding stability dG unfold [3]: 0.398 ± 0.24 kcal/mol

SAGGSAGGSAGEIDKIKVEVEFEFPVRVKVGDKEYEFLVKVKYTIGPDGKIEVKSIELFPSAGGSAGGSAGG [r11_95_TrMRF]
folding stability dG unfold [2]: 4.76 ± 0.38 kcal/mol | folding stability dG unfold [3]: 3.69 ± 0.24 kcal/mol

MPTIRVKIYRDGKLVRELELPAEEVEKMSEEELLEKVRELLEEEKGETYKVEVEIDGKKFTFEIKLPEKEES [r1_477_TrROS_Hall]
folding stability dG unfold [2]: 4.8 ± 0.24 kcal/mol | folding stability dG unfold [3]: 4.33 ± 0.39 kcal/mol

SAGGSAGGSAGPPIYWRIEFENPGKKHTMTIPRDMPVDDIKEIADEIAKRFPMPISIEPVSAGGSAGGSAGG [r11_515_TrROS]
folding stability dG unfold [1]: -0.565 ± 0.25 kcal/mol | folding stability dG unfold [3]: -0.335 ± 0.22 kcal/mol

SAGGSAGGSAGGSMAVPQTVEVEAGAKPILVTTYRLPPDGAVVRIEYPGPAVVLEEELESAGGSAGGSAGGS [r10_630_JUSTAS]
folding stability dG unfold [1]: < -1 kcal/mol | folding stability dG unfold [3]: -0.445 ± 0.2 kcal/mol

SAGGSAGGSMPVEVKFTVEKDPSTDLLTVTVTRPGGEVTPITYPDPNNLEAAKAAAEALAKASSAGGSAGGS [r12_1012_JUSTAS]
folding stability dG unfold [1]: -0.2 ± 0.41 kcal/mol | folding stability dG unfold [3]: 0.365 ± 0.076 kcal/mol

SAGGSASIDELKEEILAKTPPDVVTTGYATSSDSLSTRTYSTPAGHRVVISYTDNEIKSVSLEKAGSAGGSA [r15_175_JUSTAS]
folding stability dG unfold [1]: -0.138 ± 0.22 kcal/mol | folding stability dG unfold [3]: 0.333 ± 0.16 kcal/mol

SAGSMEVKVEIPEEVLKKIESAPPGTVVEYTETVTITTTTTIPGPGNPVPLTSTTPSPIKLTYTKPSSPSAG [r5_946_JUSTAS]
folding stability dG unfold [1]: -0.915 ± 0.31 kcal/mol | folding stability dG unfold [3]: -0.608 ± 0.06 kcal/mol

SAGGSAGGSMKVITVPLPDGGTTTYEVEKGKVTITYPPSVTKEIEVPDPSKAIENIETVSYKSSAGGSAGGS [r12_32_JUSTAS]
folding stability dG unfold [1]: < -1 kcal/mol | folding stability dG unfold [3]: -0.76 ± 0.13 kcal/mol

SAGKEIKIRIEVTRKVKNPETGEEVEEKEVVEITLSEEELKKGKSLEELAKELASKYPGAKVKIVEIESAGG [r19_110_TrROS_Hall]
folding stability dG unfold [2]: 3.08 ± 0.49 kcal/mol | folding stability dG unfold [3]: 4.43 ± 0.48 kcal/mol

SAASTLKATLRPPDGSTLDVTVLDPGEGWLLQLGDGSERVSPEELEALLANDPSLVVEELTELPLEELSSAG [r14_336_JUSTAS]
folding stability dG unfold [1]: -0.654 ± 0.2 kcal/mol | folding stability dG unfold [3]: 0.175 ± 0.05 kcal/mol

SMPVTFTMKTPENRKKLEEAIKEIEEEYPIKVEEVEKDPKGTYTYKVEMDPEIIEKVKKKLEEAGNVTLESA [r9_472_JUSTAS]
folding stability dG unfold [1]: -0.822 ± 0.97 kcal/mol | folding stability dG unfold [3]: -0.343 ± 0.23 kcal/mol

SAGGSAGGSAGGGMKVVIPKEEAEKKGLTEAKLKEIEEKLKAKGIKVEIKLISSEEPELLSAGGSAGGSAGG [r7_972_JUSTAS]
folding stability dG unfold [1]: < -1 kcal/mol | folding stability dG unfold [3]: 0.136 ± 0.12 kcal/mol

KVFSVDELRELAKKGKLKELLKKNKDVTIVVEEGSPEELKELKALPEVKEIKVVPKEDEEKIKKAKLVIKVS [r1_248_TrROS_Hall]
folding stability dG unfold [2]: 0.0786 ± 0.69 kcal/mol | folding stability dG unfold [3]: 0.312 ± 0.17 kcal/mol

SAGGSALIVLEGDLDSVVALAKEAGDPNVKVEPVADFNDDPSEPRLYRITIERDGEPDGELLFLDPSAGGSA [r15_428_TrMRF]
folding stability dG unfold [1]: < -1 kcal/mol | folding stability dG unfold [3]: -0.0896 ± 0.1 kcal/mol

SAGGSMPITVSVPVPPDVPLEEVAERIEKELREAGIEADVREVTRVPGEGRILLHFDAGKTGVIPASAGGSA [r2_242_JUSTAS]
folding stability dG unfold [1]: < -1 kcal/mol | folding stability dG unfold [3]: -0.251 ± 0.12 kcal/mol

SAGGSAGGSAGGPPEITVEHHPPNGYMTLTIPDGRPIEIPMPPNRPPSDVKNRAKDLIKSAGGSAGGSAGGS [r10_33_TrROS]
folding stability dG unfold [1]: < -1 kcal/mol | folding stability dG unfold [3]: -0.457 ± 0.39 kcal/mol

SEALILDPNVETVSPVFYLLLSPEEAEERARELREELRAELEAAGLPLPEDVVIEVVPAESEEELRALLESA [r9_204_JUSTAS]
folding stability dG unfold [1]: 0.00109 ± 0.18 kcal/mol | folding stability dG unfold [3]: 0.5 ± 0.049 kcal/mol
